# Laboratory results reported in IntAct's records for PubMed 21098279.
# B1: "Secreted effector protein EspF(U)" (Escherichia coli O157:H7), P0DJ88 (parent)
# chain: MINNVSSLFPTVNRNITAVYKKSSFSVSPQKITLNPVKISSPFSPSSSSISATTLFRAPNAHSASFHRQSTAESSLHQQLPNVRQRLIQHLAEHGIKPARSMAEHIPPAPNWPAPPPPVQNEQSRPLPDVAQRLVQHLAEHGIQPARNMAEHIPPAPNWPAPPLPVQNEQSRPLPDVAQRLVQHLAEHGIQPARSMAEHIPPAPNWPAPPPPVQNEQSRPLPDVAQRLMQHLAEHGIQPARNMAEHIPPAPNWPAPTPPVQNEQSRPLPDVAQRLMQHLAEHGIQPARNMAEHIPPAPNWPAPTPPVQNEQSRPLPDVAQRLMQHLAEHGINTSKRS
# partner: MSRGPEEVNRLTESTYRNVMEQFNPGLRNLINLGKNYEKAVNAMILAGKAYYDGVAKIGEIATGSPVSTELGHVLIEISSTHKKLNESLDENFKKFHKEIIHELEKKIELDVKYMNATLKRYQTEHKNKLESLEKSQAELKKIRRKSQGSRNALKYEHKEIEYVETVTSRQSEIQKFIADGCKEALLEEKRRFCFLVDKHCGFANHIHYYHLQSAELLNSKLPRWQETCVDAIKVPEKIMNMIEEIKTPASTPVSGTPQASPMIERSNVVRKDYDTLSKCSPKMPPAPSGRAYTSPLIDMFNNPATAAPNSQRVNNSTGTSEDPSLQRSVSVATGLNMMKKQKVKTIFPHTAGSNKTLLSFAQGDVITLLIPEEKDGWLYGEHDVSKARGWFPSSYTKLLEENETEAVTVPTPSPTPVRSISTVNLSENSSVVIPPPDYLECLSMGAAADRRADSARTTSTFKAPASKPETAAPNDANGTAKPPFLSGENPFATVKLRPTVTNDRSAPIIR
# Variants of: B1
# Settings: with bi2l1_human BAIAP2L1, Q9UHR4
row,Variant,effect of a mutation on the interaction
1,N299P;W300P,decreasing interaction
2,N299G;W300G;P301G,decreasing interaction
3,N299A;W300A;P301A,decreasing interaction
